Measurements reported in EP2078752A2 (LUDWIG INSTITUTE FOR CANCER RESEARCH, dated 2009).

Columns and labels:
Assay in all cases: affinity cross-linking of 125I-activin A then immunoprecipitation, COS-1 cells co-transfected with ActR-II
[1] = molecular target: T1, human ALK-1 (clone HP57) (human, UniProt P37023 22-503)
T1 construct: Expressed from cDNA in COS-1 cells, or endogenous in HUVEC; also called hALK-1

[2] = molecular target: T2, human ALK-5 (clone EMBLA), TGF-β type I receptor (human, UniProt P36897 25-503)
T2 construct: Expressed from cDNA in COS-1 cells and PAE cells (PAE/TβR-I), or endogenous in human cell lines and HUVEC; also called hALK-5; TβR-I
T2 sequence: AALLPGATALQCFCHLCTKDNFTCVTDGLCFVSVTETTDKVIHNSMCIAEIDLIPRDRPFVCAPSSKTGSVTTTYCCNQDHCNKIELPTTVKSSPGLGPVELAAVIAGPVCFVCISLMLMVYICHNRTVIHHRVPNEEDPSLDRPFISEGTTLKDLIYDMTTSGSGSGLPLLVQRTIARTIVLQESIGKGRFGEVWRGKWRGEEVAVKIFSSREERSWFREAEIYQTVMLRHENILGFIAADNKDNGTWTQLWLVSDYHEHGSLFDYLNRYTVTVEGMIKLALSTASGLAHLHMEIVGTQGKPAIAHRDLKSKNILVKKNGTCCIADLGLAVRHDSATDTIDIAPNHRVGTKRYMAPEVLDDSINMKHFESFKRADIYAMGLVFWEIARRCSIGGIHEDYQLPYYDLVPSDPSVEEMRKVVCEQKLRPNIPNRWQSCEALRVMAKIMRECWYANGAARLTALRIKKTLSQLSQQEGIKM

[3] = molecular target: T3, mouse ALK-6 (clone ME-6) (mouse, UniProt P36898 14-502)
T3 construct: Expressed from cDNA in COS-1 cells; also called mALK-6; BMPR-IB
T3 sequence (P36898 14-502 limits assumed): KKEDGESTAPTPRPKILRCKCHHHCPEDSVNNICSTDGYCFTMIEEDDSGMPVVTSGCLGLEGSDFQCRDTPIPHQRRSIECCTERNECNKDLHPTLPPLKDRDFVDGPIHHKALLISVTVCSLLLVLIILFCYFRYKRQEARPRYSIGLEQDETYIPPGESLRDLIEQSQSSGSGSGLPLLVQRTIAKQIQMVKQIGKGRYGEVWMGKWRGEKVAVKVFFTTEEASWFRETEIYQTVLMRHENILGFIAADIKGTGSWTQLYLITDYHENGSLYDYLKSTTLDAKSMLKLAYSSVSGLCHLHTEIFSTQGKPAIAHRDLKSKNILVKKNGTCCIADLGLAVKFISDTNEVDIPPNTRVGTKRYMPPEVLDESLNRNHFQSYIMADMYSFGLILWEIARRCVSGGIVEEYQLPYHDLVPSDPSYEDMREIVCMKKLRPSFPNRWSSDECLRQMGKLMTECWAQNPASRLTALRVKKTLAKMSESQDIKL

T1 sequence (P37023 22-503 S172T limits assumed): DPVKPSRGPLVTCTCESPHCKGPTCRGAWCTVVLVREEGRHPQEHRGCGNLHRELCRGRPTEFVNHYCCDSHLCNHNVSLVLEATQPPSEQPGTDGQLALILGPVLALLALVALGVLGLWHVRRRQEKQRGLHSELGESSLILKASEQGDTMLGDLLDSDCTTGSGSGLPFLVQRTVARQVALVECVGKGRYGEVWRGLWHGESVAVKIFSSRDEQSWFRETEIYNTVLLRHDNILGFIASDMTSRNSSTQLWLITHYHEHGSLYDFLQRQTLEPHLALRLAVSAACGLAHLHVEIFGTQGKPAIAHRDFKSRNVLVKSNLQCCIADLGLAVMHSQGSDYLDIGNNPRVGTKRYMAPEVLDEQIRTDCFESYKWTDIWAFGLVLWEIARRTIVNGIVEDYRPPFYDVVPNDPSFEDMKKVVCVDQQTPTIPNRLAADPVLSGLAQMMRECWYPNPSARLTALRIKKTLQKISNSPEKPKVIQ

binding result [1]: binds
binding result [2]: binds
binding result [3]: binds
B1: recombinant human activin A, iodinated (^125I-activin A) (ligand, UniProt P08476 311-426, looked up)
chain: GLECDGKVNICCKKQFFVSFKDIGWNDWIIAPSGYHANYCEGECPSHIAGTSGSSLSFHSTVINHYRMRGHSPFANLKSCCVPTKLRPMSMLYYDDGQNIIKKDIQNMIVEECGCS
modifications: 125I-iodinated by the chloramine T method
notes: Recombinant ligand
